Experimental data: patent US20090117043A1 (Human Genome Sciences, published 2009)
Where no end group is shown, it is not given here.

B1: NO23E01 (scFv)
scFv: QVQLVQSGGGLVQPGRSLRLSCAASGFTFDDYAMHWVRQAPGKGLEWVSGISWNSASIGYADSVKGRFTISRDNAKNSLYLQMNSLRGEDTALYYCAKGARDALDIWGKGTLLTVSSGGGGSGGGGSGGGGSQSVLTQPPSVSAAPGQKVTISCSGSTSNIGNNYVSWYQQHPGKAPKLMIYDVSKRPSGVPDRFSGSKSGNSASLDISGLQSEDEADYYCAAWDDSLSEFLFGTGTKLTVLG
B2: NO25C01 (scFv)
scFv: QVQLVQSGAEVKKPGTSVKVSCKAAGDTFRSYIISWVRQAPGQGLEWVGGIIPMFGTSNYAQKFQGRVTITADDSTSTAYMELSSLRSEDTAVYYCARTAQGGSYYNYWGQGTPVTVSSGGGGSGGGGSGGGGSQSVLTQPPSVSAAPGQKVTISCSGSTSNIGNNYVSWYQQHPGKAPKLMIYDVSKRPSGVPDRFSGSKSGNSASLDISGLQSEDEADYYCAAWDDGLSEFLFGTGTKLTVLG
B3: NO23F05 (scFv)
scFv: QVQLVQSGAEVKKPGFSVKVSCKASGGSFSNYVISWLRQAPGQGLEWMGGIMPIFGNANYAQKFQDRVTITADKSTSTAYMELSSLRSDDTAVYYCARDQIVVDPVTKGAYYSGLDVWGRGTMVTVSSGGGGSGGGGSGGGGSAQSVLTQPPSASGTPGQRVTISCSGGSSNIGANAITWFQQLPGTAPKLLIYHNNQRPSGVPDRFSGSKSGTSGSLAISGLQSEDEADYYCAVWDNSLNAMLFGGGTKLTVLG
B4: NO25E05 (scFv)
scFv: QVQLQQSGAEVKKPGSSVKVSCKASGDTFSSNTISWVRQAPGQGLEWMGGIIPIIGTPHYAQKFQGRVTITADRSTSTAYMELTNLRSEDTAVYFCARNRVGTSSFDFWGQGTMVTVSSGGGGSGGGGSGGGGSALPVLTQPPSASGTPGQRVTISCSGSSSNIGSNTVNWYQQLPGTAPKLFIYSNNQRPSGVPDRFSGSKSGTSASLAISGLQSEDEADYYCSSWDDSLNLIFGGGTKVTVLG
B5: NO15D10 (scFv)
scFv: QVQLVQSGAEVKKPGSSVRISCKASGGSFRTYVVSWVRQAPGQGLEWMGGIIPVYGTPNYAQKFQGRVTITADEPTRTTYMELSSLRSEDTGVYYCARNGGGLDYWGQGTMVTVSSGGGGSGGGGSGGGGSQSVLTQPPSVSAAPGQKVTISCSGSTSNIGNNYVSWYQQHPGKAPKLMIYDVSKRPSGVPDRFSGSKSGNSASLDISGLQSEDEADYYCAAWDDSLSEFLFGTGTKLTVLG
B6: NO15D08 (scFv)
scFv: QVQLLQSAPEVKKPGSSVRVSCKTSGGTFSSQLINWVRQPPGQGPEWMGGIIPIFGTANYAQKFQGRVTITADESTSTAYMELSSLRSEDTAVYYCARDLTAGRFDAFHIWGRGTLVTVSSGGGGSGGGGSGGGGSQSVLTQPPSVSAAPGQKVTISCSGSTSNIGNNYVSWYQQHPGKAPKLMIYDVSKRPSGVPDRFSGSKSGNSASLDISGLQSEDEADYYCAAWDDSLSEFLFGTGTKLTVLG
B7: NO15F10 (scFv)
scFv: QVQLQQSGAEVKKPGSSVKVSCKASGGTFSSYAISWVRQAPGQGLEWMGGSIPKFRTANYAKKFQGRVTITADESTSTAYMELSSLRSDDTAVYYCARGSAYNLRNAFDIWGQGTTVTVSSGGGGSGGGGSGGGGSAQSVVTQPPSVSAAPGQRVTISCSGSSSNIANNYVSWYQQLPGTAPKLLIYDNNKRPSGIPDRFSGSKSGTSATLGITGLQTGDEADYYCGTWDSSLSAYVFGTGTKVTVLG
B8: N024C01 (scFv)
scFv: QVQLQQSGAEVKNPGSSVKVSCKPSRDTLSGDNFSSSVFSWVRQAPGQGLEWMGGIIPIFGVANYAQKFQPRVTISADMSTNTAYMELSSLRSEDTAVYYCASTWELRNAFDIWGKGTLVTVSSGGGGSGGGGSGGGGSQSVLTQPPSVSAAPGQKVTISCSGSTSNIGNNYVSWYQQHPGKAPKLMIYDVSKRPSGVPDRFSGSKSGNSASLDISGLQSEDEADYYCAAWDDSLSEFLFGTGTKLTVLG
B9: N015E08 (scFv)
scFv: QMQLQESGAEVKKPGSSVKVSCKASGDTFRSYIISWVRQAPGQGLEWMGGIIPMFGTTNYAQQFQGKVTITADDSTSTSYMELRSLRSDDTAVYYCARGTNYMDVWGQGTTVTVSSGGGGSGGGGSGGGGSQSVLTQPPSVSAAPGQKVTISCSGSTSNIGNNYVSWYQQHPGKAPKLMIYDVSKRPSGVPDRFSGSKSGNSASLDISGLQSEDEADYYCAAWDDSLSEFLFGTGTKLTVLG
B10: NO24D08 (scFv)
scFv: EVQLVQSGAEVKRPGASVKISCRTSGYTFTSYYIHWVRQAPGQGLEWLAIINPTAGNTYYTQDFQDRVTVTRDTSTSTVYMELRGLNSEDTAVYYCASPYGVRNAFDVWGQGTMVTVSSGGGGSGGGGSGGGGSQSVLTQPPSVSAAPGQKVTISCSGSTSNIGNNYVSWYQQHPGKAPKLMIYDVSKRPSGVPDRFSGSKSGNSASLDISGLQSEDEADYYCAAWDDSLSEFLFGTGTKLTVLG
B11: NO24E07 (scFv)
scFv: QVQLQESGGGLEQPGRSLRLSCTASGFTFDDYPMHWVRQAPGKGLEWVSGISGNSDRIAYADSVKGRFTISRDNSKNTLWLQMNSLRAEDTAIYYCARAARNWFDPWGQGTLVTVSSGGGGSGGGGSGGGGSQSVLTQPPSVSAAPGQKVTISCSGSTSNIGNNYVSWYQQHPGKAPKLMIYDVSKRPSGVPDRFSGSKSGNSASLDISGLQSEDEADYYCAAWDDSLSEFLFGTGTKLTVLG
B12: NO24C05 (scFv)
scFv: QVQLQQSGPGLVKPSQTLSLTCAISGDSVSSNTAAWSWIRQSPSRGLEWLGRTYYSRSKWYKDYAVSVKSRITINPDTSKNQFSLQLDSVTPEDTAVYYCTREGYYDYSGVVDYWGQGTTVIVSSGGGGSGGGGSGGGGSQSVLTQPPSASGSPGQSVTISCTGTSSDVGGYNYVSWYQQHPGKAPKFMIYDVSKRPSGVSNRFSGSKSGNTASLTISGVQAEDEADYYCSSYTSASTVIFGGGTKLTVLG
B13: NO24B07 (scFv)
scFv: QVQLQQSGAEVKKPGSSVKVSCKASGGTFSSYAISWVRQAPGQGLEWMGGSIPKFRTANYAKKFQGRVTITADESTSTAYMELSSLRSDDTAVYYCARGSTYNLRNAFDIWGKGTLVTVSSGGGGSGGGGSGGGGSAQSVVTQPPSASGTPGQRVTISCSGGSSNIGRNTVNWYQQVPGTAPKLLIYTNNQRPSGVPDRFSGSKSGTSASLAISGLQSEDEADYYCAAWDDSLNDVEFGGGTKLTVLG
B14: NO24B01 (scFv)
scFv: QVQLQQSGNEVKKPGSSVKISCKASGAPFNSYVISWVRQAPGQGLEWVGGVVPIFGTAHYAHQFQGRVTIIADKSTSTVYMELRGLTSDDTAEYFCARQGPYGKLDDWGQGTMVTVSSGGGGSGGGGSGGGGSALSYELTQPPSASGTPGQRVTISCSGSSSNIGSNYVYWYQQFPGTAPKLLMYRNNQRPSGVPDRFSGSKFGTSASLAISGLRSEDEADYYCAAWDDSLTGRVFGGGTKVTVLG
B15: NO24D01 (scFv)
scFv: QVQLQQSGGGVVQPGRSLRLSCAASGFTFDDYAMHWVRQAPGKGLEWVSGISWNSGSIGYADSVKGRFTISRDNAKNSLYLQMNSLRAEDTALYYCAKTGGGNSLDYWGRGTLVTVSSGGGGSGGGGSGGGGSQSVLTQPPSVSAAPGQKVTISCSGSTSNIGNNYVSWYQQHPGKAPKLMIYDVSKRPSGVPDRFSGSKSGNSASLDISGLQSEDEADYYCAAWDDSLSEFLFGTGTKLTVLG
B16: NO24F07 (scFv)
scFv: QVQLQQSGAEVKKPGSSVNVSCKASGGTFDTFGISWVRQAPGKGLEWMGVIAHDGSISYYADSVKGRFTFSRDNSKNTVSLQMNSPRPEDTAVYYCAKGEYDSSGYNAFDIWGKGTLVTVSSGGGGSGGGGSGGGGSQSVLTQPPSVSAAPGQKVTVSCSGSTSNIGNNYVSWYQQHPGKAPKLMIYDVSKRPSGVPDRFSGSKSGNSASLDISGLQSEDEADYYCAAWDDSLSEFLFGTGTKLTVLG
B17: NO24F09 (scFv)
scFv: QVQLQQSGAEVKKPGASVKVSCKASGYTFTGYYMHWVRQAPGQRLEWMGGILPFFGTTSYAQNFHGRLTITADESTRTAYMELSSLKSEDTAVYYCARDESADPKNAFDIWGRGTMVTVSSGGGGSGGGGSGGGGSQSVLTQPPPVSAAPGQKVTISCSGSTSNIGNNYVSWYQQRPGKAPKLMIYDVSKRPSGVPDRFSGSKSGNSASLDISGLQSEDEADYYCAAWDDSLSEFLFGTGTKLTVLG

Target: T1, mature form of the neurokinin B polypeptide (amino acids 81 to 90 of SEQ ID NO:2) (human, ends and bridges not checked)
T1 construct: also called NKB; neurokinin 3 (NK3)
T1 peptide: DMHDFFVGLM
Assay: phage display selection of scFvs; conditions not given

Binding result, binds:
B1
B2
B3
B4
B5
B6
B7
B8
B9
B10
B11
B12
B13
B14
B15
B16
B17
